Experimental findings from patent US20260274910A1, “SINGLE FUSION PROTEIN AND PHARMACEUTICAL COMPOSITION” (MEDI&GENE INC., priority 2023, published 2026) are described below.

For data set [1] the following is noted: mouse, in vivo, 2.5 mg/kg.
Procedure: For evaluation, ten-week-old C57BL/6 mice were used, and the mice were reared in a specialized animal facility which provided a normal diet and a 12/12 hour night/day cycle and then used for experimentation.
The synthetic peptide (SEQ ID NO: 8) and fusion protein (SEQ ID NO: 13) were each injected into the mice at a concentration of 2.5 mg/kg, and blood was collected at 0, 0.5, 2, 4, 24 hours after injection. The collected blood was centrifuged and the obtained plasma was analyzed. At this time, in order to perform effective quantification of the substances, each substance was conjugated with Dylight 680 Near-Infrared dye (NIR) in advance prior to injection, and the finally collected blood samples were examined by observing fluorescent signals with a SpectraMax i3 microplate reader device.
The subject of another data set is 3T3-L1 adipocytes. Briefly: Lipid droplet analysis (BODIPY 493/503, confocal) in 3T3-L1 adipocytes. As to conditions: differentiated 3T3-L1 adipocytes, 100 nM, 30 hours. The class given is cell-based, mouse. The method, then: To observe the functionality of the fusion proteins related to lipid metabolism, the 3T3-L1 mouse pre-adipocyte cell line was used as the cell line itself (undifferentiated) or by differentiating into adipocytes. Differentiation into the adipocytes was performed by inducing primary differentiation for the 3T3-L1 cells in a medium containing DMEM, 10% FBS, 10 μg/ml insulin, 0.5 mM IBMX (3-Isobutyl-1-methylxanthine), and 1 μM dexamethasone for 2 days, and inducing secondary differentiation with a medium containing DMEM, 10% FBS, and 10 μg/ml insulin for the remaining 4 days. The adipocytes in which differentiation was finally completed were treated with the test substances at a concentration of 100 nM for 30 hours (Control: PBS) and then used for each test.
In addition, lipid droplets of adipocytes were stained with BODIPY 493/503 dye sample, and then confocal image scanning was performed to analyze the size and diameter of the lipid droplets.

The test system of data set [2] is Akt and S6 (phosphorylation, p-Akt/p-S6) in C2C12 mouse skeletal muscle cell line. In words: Akt and S6 phosphorylation (western blot) in C2C12 muscle cells. The class given is cell-based. As to conditions: 2 hours. The method, then: In order to evaluate functions related to muscle loss diseases, each test substance was treated to the undifferentiated C2C12 mouse skeletal muscle cell line (mouse myoblast cell line) or the cell line in which differentiation into myotubes was completed. Differentiation of the cell line into myotubes was performed by conducting addition of 2% horse serum to culture medium and replacement with new medium every two days for a total of 4 days.
To the undifferentiated or differentiated cell lines, the test substances, fusion proteins (SEQ ID NOs: 1, 2, 3, 7, 14 and 15) were treated at a concentration of 100 nM (Control: PBS treated group) for 2 hours. Thereafter, the cells were immediately washed once and the cells were lysed with RIPA buffer (Radioimmunoprecipitation assay buffer). The activity of Akt and S6 (phosphorylation, p-Akt/p-S6) was observed by western blot. Akt phosphorylation is a well-known marker of activation of cell signaling pathways, and is an indicator of beneficial effects on muscle cells such as promotion of glucose metabolism and promotion of muscle biosynthesis. Similarly, S6 phosphorylation is a well-known marker of mTOR activity, and the activity of mTOR is an indicator showing muscle biosynthesis and various cell signaling pathways.
On the technique in general: Immunoblotting shows a protein as a band on a membrane.

The test system of data set [3] is follicular cells (dermal papilla cells). In words: Follicular cell proliferation by MTT assay. The class given is cell-based. As to conditions: 100 nM, 24 hours; compared with Control (PBS). The method, then:
Whether the test substances of the present invention has effects on preventing hair loss or promoting hair growth was evaluated as follows. Specifically, it was observed whether they have efficacy of improving loss of follicular cells in scalp tissue which is a cause of hair loss, or hair growth due to an increase in hair follicles, by using dermal papilla cells and evaluating cell proliferation of follicular cells.
The follicular cells were treated with each test substance 100 nM (control: PBS) for 24 hours, and the degree of cell proliferation was evaluated by MTT assay.
Background: Formazan colour is commonly taken as a measure of viable cells.

The test system of another data set is plasma proteins. In words: Plasma protein binding test (PPB). It is filed as in vitro ADME, mice. As to conditions: mouse plasma, 5 uM, 37° C., 4 hours, 100 kD filter, western blot. The method, then: Such an increase in half-life was further confirmed by measuring plasma protein binding rates (Plasma protein binding test, PPB). […] Each of the plasma of the mice and the fusion protein (SEQ ID NO: 13), and or His tag-wild-type substance (1-81) (SEQ ID NO: 5) was incubated at a concentration of 5 uM at 37° C. for 4 hours. After that, they were centrifuged with a 100 kD filter to obtain fractions of the substance bound to the plasma proteins or fractions of the unbound substance. Each of the obtained fractions was evaluated by western blot.

The mark [4] stands for this setting: C2C12 differentiated into myotubes, 100 nM, control PBS.
Where [5] appears, read: Table 6, C2C12, 100 nM, differentiation state not given.
Setting [6] is: undifferentiated C2C12, 100 nM, control PBS.

B1: Human ATPIF1 (peptide, listed as Homo sapiens)
chain: GSDQSENVDRGAGSIREAGGAFGKREQAEEERYFRAQSREQLAALKKHHEEEIVHHKKEIERLQKEIERHKQKIKMLKHDD
Consider B1, for which the Half-life in data set [1] amounted to 1.6 h. Besides, in the data set on 3T3-L1 adipocytes, the Lipid droplet size entry is recorded as “reduced at a significant level”, the “Maximum lipid droplet diameter per cell” value is “reduced at a significant level” and the “Total lipid droplet area” value is reported as “reduced at a significant level”.

B2: His tag Human ATPIF1 (protein)
chain: MGSHHHHHHSSGLVPRGSHMGSDQSENVDRGAGSIREAGGAFGKREQAEEERYFRAQSREQLAALKKHHEEEIVHHKKEIERLQKEIERHKQKIKMLKHDD
notes: Recombinant protein: His tag-wild-type substance (1-81), control group
For the molecule B2, in data set [2] (setting [4]), the “Activity (% increase compared to control) Differentiated Akt” value came to 248% and the “Activity (% increase compared to control) Differentiated S6” value came out at 262%. Also, in data set [2] (setting [5]), the “Activity (% increase compared to control) Akt” value is on record as 254% and the “Activity (% increase compared to control) S6” value came out at 217%. Besides, in data set [2] (setting [6]), the “Activity (% increase compared to control) Undifferentiated Akt” value came to 165% and the “Activity (% increase compared to control) Undifferentiated S6” value was determined as 207%. In addition, the “Cell viability (MTT, cell proliferation)” value in data set [3] is reported as “significantly increased”. Besides, the “Binding rate with the plasma proteins” value in the data set with plasma proteins is given as 5%.
